We go through nine molecules from US20160280798A1, “ALK ANTIBODIES, CONJUGATES, AND CHIMERIC ANTIGEN RECEPTORS, AND THEIR USE” (The United States of America, as Represented by the …, priority 2013, published 2016).

Test [1] deals with ALK. To be noted: cited from earlier work.
Target sequence in this assay (Q9UM73 19-1620): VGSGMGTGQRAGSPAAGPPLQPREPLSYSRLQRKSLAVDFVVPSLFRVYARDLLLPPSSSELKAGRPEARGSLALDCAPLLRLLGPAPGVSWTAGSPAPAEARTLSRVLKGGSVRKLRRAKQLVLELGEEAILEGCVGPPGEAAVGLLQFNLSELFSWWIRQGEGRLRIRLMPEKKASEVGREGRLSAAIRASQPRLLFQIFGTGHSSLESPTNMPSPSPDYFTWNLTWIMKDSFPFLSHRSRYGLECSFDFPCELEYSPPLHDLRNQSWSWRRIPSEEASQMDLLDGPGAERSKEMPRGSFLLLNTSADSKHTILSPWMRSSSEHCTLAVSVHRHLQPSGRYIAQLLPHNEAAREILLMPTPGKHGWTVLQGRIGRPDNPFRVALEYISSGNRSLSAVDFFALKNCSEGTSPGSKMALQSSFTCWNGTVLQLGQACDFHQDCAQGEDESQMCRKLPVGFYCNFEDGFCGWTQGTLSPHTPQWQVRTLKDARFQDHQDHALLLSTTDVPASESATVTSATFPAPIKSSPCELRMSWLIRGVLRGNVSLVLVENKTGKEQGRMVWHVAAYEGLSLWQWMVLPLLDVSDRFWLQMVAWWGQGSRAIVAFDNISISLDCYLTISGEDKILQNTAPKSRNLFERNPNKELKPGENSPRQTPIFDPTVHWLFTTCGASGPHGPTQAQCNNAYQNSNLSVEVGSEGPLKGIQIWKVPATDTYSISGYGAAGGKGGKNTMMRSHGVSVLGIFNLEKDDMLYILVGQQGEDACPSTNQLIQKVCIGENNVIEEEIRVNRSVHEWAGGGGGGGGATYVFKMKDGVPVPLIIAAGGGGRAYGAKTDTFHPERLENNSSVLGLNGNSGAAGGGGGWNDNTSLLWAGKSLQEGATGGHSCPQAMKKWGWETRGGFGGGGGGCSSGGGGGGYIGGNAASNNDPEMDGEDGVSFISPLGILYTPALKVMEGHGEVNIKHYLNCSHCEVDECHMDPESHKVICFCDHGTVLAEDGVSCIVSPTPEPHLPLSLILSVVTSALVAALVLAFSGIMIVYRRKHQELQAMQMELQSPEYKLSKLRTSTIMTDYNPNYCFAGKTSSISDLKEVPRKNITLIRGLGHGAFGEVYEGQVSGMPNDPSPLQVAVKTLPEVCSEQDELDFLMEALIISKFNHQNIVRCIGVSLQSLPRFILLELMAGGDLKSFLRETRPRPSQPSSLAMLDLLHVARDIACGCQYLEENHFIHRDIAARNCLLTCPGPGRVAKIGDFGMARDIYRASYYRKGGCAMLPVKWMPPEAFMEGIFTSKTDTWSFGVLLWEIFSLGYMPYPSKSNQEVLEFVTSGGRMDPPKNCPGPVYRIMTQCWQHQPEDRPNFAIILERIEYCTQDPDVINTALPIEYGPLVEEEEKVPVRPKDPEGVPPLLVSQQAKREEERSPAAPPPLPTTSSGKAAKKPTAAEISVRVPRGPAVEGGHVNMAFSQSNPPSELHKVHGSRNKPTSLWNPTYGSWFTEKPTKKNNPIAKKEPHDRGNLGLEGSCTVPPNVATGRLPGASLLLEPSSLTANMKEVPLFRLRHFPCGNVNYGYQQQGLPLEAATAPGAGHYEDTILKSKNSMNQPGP
The target in test [2] is T1, extracellular domain of ALK (Homo sapiens, UniProt Q9UM73).
T1 construct: monoclonal antibodies (mAb) against the extracellular domain of ALK
The conditions noted are these: cited from earlier work.

For test [3], the system named is ALK+ human neuroblastoma cells (SY5Y cells). As to the kind of experiment: SY5Y neuroblastoma xenograft assay. The format is in vivo. To be noted: transduced T cells given on day 13, no treatment on day 6. The procedure:
NSG mice were injected s.c. on day 0 with 5×10^6 human neuroblastoma cells (SY5Y in vivo passaged and re-cultured as a new line, SY5Y.P1). On day 6, 5.1×10^6 ALK48-28z CAR(+)ve T cells were injected r.o. (34% positive/15 million total). CAR-treated mice were given a cocktail of (0.9 μg IL-7+6.6 μg M25 anti-IL7 mAb) i.p. every 2-3 days, for the time period indicated above. Survival statistics were calculated using Log-rank (Mantel-Cox) analysis (Prism Software, Inc.). On day 13, 3.2×10^6 ALK48SH-trasnduced T cells were given. The experiment was ended on day 64 due to graft vs host disease-like symptoms, standardly encountered in the NSG model system.
NOD scid gamma (NSG) mice were inoculated with ALK+ human neuroblastoma cells (SY5Y cells). On day 6, the mice were treated with human T cells transduced to express the murine ALK specific ALK48-28z CAR (SEQ ID NO: 49, long form CAR with CH2CH3 spacer domain) or mock treated T cells. […] In a separate set of mice, on day 13 post inoculation (and without any treatment on day 6), the mice were treated with ALK48SH-28z (SEQ ID NO: 50, short form CAR without spacer domain) transduced T cells.
The mice also received biweekly injections of IL-7 complexed to anti-IL7 antibody to promote T cell persistence. […] The other two groups all died of tumor.

The target in test [4] is T2, human anaplastic lymphoma kinase (ALK) protein (human, UniProt Q9UM73 19-1620).
T2 construct: Endogenous ALK on tumor cell lines (SY5Y, LAN5, KCNR, IMR32, Rh18); also called CD246; cell surface ALK
As to the kind of experiment: flow cytometry on tumor cell lines expressing ALK. The procedure: Cell lines used in these studies were: Sy5Y, LAN5, K562, Rh18, IMR32, KCNR. Cells were cultured in RPMI-1640 supplemented with 2 mM lgln, 10 mM HEPES, Pen/Strep, (Gibco, Life Technologies, Grand Island, N.Y.) and 10% FBS (Omega Scientific, Tarzana, Calif.). Anti-ALK antibodies were produced as described previously: ALK15A (IgG2b, weak agonist, membrane proximal binding), ALK48B (IgG2a, agonist, membrane proximal binding), ALK53A, ALK58A (binds to a membrane distal epitope) (Mazot et al., Oncogene, 30, 2017-2025, 2011; Moog-Lutz et al., J Biol. Chem., 280, 26039-26048, 2005). Staining for ALK expression on tumor lines was performed as follows: 2.5 μL primary antibody (1 mg/ml conc.) per 1 million cells was added to cells on ice in FACS buffer, FB, (PBS, 0.5% BSA, 0.02% NaN3) for 20 minutes, cells were washed twice, then stained with 5 μL FITC-F(ab′)2 Fragment Goat Anti-Mouse IgG+IgM (H+L) secondary antibody (Jackson ImmunoResearch, 1 mg/ml) for 20 minutes, washed, then analyzed by flow cytometry.
As reported previously, ALK MAbs 7, 48, 53, and 58 were able to detected ALK expression on tumor cell lines by flow cytometry. The ALK-specific MAb was used to define the expression of ALK on a series of neuroblastoma call lines, and a rhabdomyosarcoma cell line. FIG. 1 illustrates that the neuroblastoma cell lines SY5Y, LAN5, KCNR, IMR32, all express cell surface ALK, as does the rhabdomyosarcoma cell line Rh18. The differences in expression were quite varied with the SY5Y staining the brightest for ALK expression. This was true when the other MAbs specific for ALK were tested as well.

The subject of test [5] is ALK. The conditions noted are these: flow cytometry; as reported previously; cited from earlier work.
Target sequence in this assay (Q9UM73 19-1038 limits assumed): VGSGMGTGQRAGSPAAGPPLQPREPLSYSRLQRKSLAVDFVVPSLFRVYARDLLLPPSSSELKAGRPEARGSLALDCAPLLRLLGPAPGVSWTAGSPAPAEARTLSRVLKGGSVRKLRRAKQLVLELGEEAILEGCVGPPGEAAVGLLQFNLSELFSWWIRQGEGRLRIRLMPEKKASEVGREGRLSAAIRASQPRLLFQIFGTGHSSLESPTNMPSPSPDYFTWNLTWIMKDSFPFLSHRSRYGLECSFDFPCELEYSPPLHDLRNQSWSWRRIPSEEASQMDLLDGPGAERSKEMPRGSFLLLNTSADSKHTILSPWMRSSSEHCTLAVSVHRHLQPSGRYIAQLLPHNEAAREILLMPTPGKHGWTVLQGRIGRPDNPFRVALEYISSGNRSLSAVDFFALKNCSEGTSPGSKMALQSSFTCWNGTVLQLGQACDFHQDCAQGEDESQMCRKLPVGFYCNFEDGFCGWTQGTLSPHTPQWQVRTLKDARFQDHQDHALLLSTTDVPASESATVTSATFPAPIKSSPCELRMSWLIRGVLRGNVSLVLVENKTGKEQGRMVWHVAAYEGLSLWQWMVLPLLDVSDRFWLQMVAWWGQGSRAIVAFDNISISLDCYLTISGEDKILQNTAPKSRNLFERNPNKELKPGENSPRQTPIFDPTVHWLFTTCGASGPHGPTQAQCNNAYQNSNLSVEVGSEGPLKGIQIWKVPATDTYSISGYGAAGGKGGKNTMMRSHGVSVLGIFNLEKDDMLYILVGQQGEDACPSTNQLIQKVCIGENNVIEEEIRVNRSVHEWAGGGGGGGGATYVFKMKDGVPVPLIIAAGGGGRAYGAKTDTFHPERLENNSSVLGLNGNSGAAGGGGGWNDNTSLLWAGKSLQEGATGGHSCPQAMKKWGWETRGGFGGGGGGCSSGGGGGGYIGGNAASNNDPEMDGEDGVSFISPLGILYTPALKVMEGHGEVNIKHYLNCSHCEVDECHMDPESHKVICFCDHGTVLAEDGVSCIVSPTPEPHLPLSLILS
For test [6], the system named is tumor cell lines (LAN5 SY5Y, Rh18, K562). Description: Cytokine release on co-culture of CAR T cells with tumor cell lines. Format: cell-based. The conditions noted are these: 24-hour co-culture with tumor cell lines; FIG. 6. As to the method: FIGS. 6A-6C show a series of graphs illustrating cytokine activity of the disclosed CAR T Cells. PBMC were transduced with the indicated CAR constructs, and incubated with tumor targets (LAN5 SY5Y, Rh18, K562 as indicated in legend), and supernatants collected after 24 hours and tested for the presence of cytokine by a MesoScale mutli-analyte detection system. […] Controls include mock transduced cells, tumor only, and T cells without tumor target, as indicated.
T cell cytolytic function was assayed in standard 51Cr release assays as described elsewhere (Haso et al., (2013) Blood, 121, 1165-1174). Cytokine release was assayed by co-incubating 25,000 T cells with 25,000 tumor cell targets in cRPMI. At 24 hours culture media was collected and cytokines measured (Human TH1/TH2 multiplex, Meso Scale Discovery, Rockville, Md.).

Read-outs that look alike come from different tables or passages of the source.

T2 sequence (Q9UM73 19-1620 limits assumed): as the sequence (Q9UM73 19-1620) above
T1 sequence (Q9UM73 19-1038 limits assumed): as the sequence (Q9UM73 19-1038 limits assumed) above

B1: ALK15A: anti-ALK monoclonal antibody, IgG2b; VH SEQ ID NO: 1, VL SEQ ID NO: 2 (antibody, V domains shown)
VH: DVKLQESGPGLVAPSQSLSITCTVSGFSLTSYAVSWVRQPPGKGLEWLGIIWSGGATNYNSALKSRLSISKDNSKSQVFLKMNGLQTDDTARYYCAREHYYGSSAMDYWGQGASITVSS
VL: GIVMTQSPLSLPVSLGDQASISCRSSQSIVHSYGNTYLFWYLQKPGQSPKLLIYRVSNRFSGVPDRFSGSGSGTNFTLKISRVEAEDMGVYYCFQGTHVPYTFGGGTKLEIK
modifications: Antibody variable domain sequence
For the molecule B1, in the test on ALK [1], the “agonist activity on ALK” value is “weak agonist”. Moreover, the “location of epitope on ALK” value in test [2] is on record as “membrane proximal binding”.

B2: ALK48SH-28z: CAR, SEQ ID NO: 50; murine ALK48 scFv, no spacer (short form), 28z (protein)
chain: LLVTSLLLCELPHPAFLLIPDTQVQLQQSGAELVKPGASVKISCKASGYAFSSYWMNWVKQRPGKGLEWIGQIYPGDGDTTYNGKFKGKATLTADKSSSTVYMQLNSLTSEDSAVYFCVRYYYGSSGYFDYWGQGTTLTVSSGGGGSGGGGSGGGGSDVQMIQTPDSLAVSLGQRATISCRASESVDNYGISFMHWYQQKPGQSPKLLIYRASNLESGIPARFSGSGSRTDFTLTINPVETDDVATYYCQQNNKDPPTFGGGTKLEIKRAAAIEVMYPPPYLDNEKSNGTIIHVKGKHLCPSPLFPGPSKPFWVLVVVGGVLACYSLLVTVAFIIFWVRSKRSRLLHSDYMNMTPRRPGPTRKHYQPYAPPRDFAAYRSRVKFSRSADAPAYQQGQNQLYNELNLGRREEYDVLDKRRGRDPEMGGKPRRKNPQEGLYNELQKDKMAEAYSEIGMKGERRRGKGHDGLYQGLSTATKDTYDALHMQALPPR
modifications: chimeric antigen receptor sequence
notes: murine ALK48 scFv, no spacer (short form), 28z
B2: the effect on survival entry in test [3] was “no effect on survival”.

B3: ALK58 monoclonal antibody (antibody, V domains shown)
VH: ALQLQQSGAELVRPGASVTLSCKASGYTFTDYEMHWVKQTPVHGLEWIGAIDPETGGTAYNQKFEGKAILTADKSSSTAYMELRSLTSEDSPVYYCARRRYYGSSSFDYWGQGTTLTVSS
VL: DVQMIQTPSSLSASLGDRVTISCRASQDIGNYLNWYQQKPDGTVKLLIYYTSRLHSGVPSRFSGSGSGTEYSLTISNLEQEDIATYFCQQGSALPPTFGGGTKLEIN
notes: Murine hybridoma antibody; also called ALK58A; ALK MAb 58
With B3, the binding result in test [4] is on record as “binds”.

B4: ALK58A: anti-ALK monoclonal antibody; VH SEQ ID NO: 7, VL SEQ ID NO: 8 (antibody, V domains shown)
VH: B3 VH
VL: B3 VL
modifications: Antibody variable domain sequence
On to B4, for which the “detection of ALK expression on tumor cell lines” value (shortened to “detection of ALK expression”) in the test on ALK [5] is on record as “able to detected ALK expression”. Further, in the test with ALK [1], the “agonist activity on ALK” value is reported as “activating” and the “phosphorylation of the receptor upon binding” value was “induce phosphorylation”. In addition, in test [2], the “form of ALK bound (220 kD / 140 kDa cleaved)” value was “only the 220 KDa form” and the “location of epitope on ALK” value is listed as “membrane distal epitope”. For the same molecule, the “location of epitope on ALK” value in test [2] (listed as clone 58) is reported as “more distal cleaved region”.

B5: ALK48 monoclonal antibody (antibody, IgG2a, V domains shown)
VH: QVQLQQSGAELVKPGASVKISCKASGYAFSSYWMNWVKQRPGKGLEWIGQIYPGDGDTTYNGKFKGKATLTADKSSSTVYMQLNSLTSEDSAVYFCVRYYYGSSGYFDYWGQGTTLTVSS
VL: DVQMIQTPDSLAVSLGQRATISCRASESVDNYGISFMHWYQQKPGQSPKLLIYRASNLESGIPARFSGSGSRTDFTLTINPVETDDVATYYCQQNNKDPPTFGGGTKLEIK
notes: Murine hybridoma antibody; also called ALK48B; ALK MAb 48
Take B5: the binding result in test [4] is reported as “binds”.

B6: ALK48: CAR construct, long format: SP-murine ALK48 scFv-CH2CH3 spacer; signaling domains not stated for the in vitro tests (antibody, V domains shown)
VH: B5 VH
VL: B5 VL
Consider B6, for which, in test [6], the IFN-gamma production entry is given as “Strong”, the IL-2 production result is on record as “lower levels” and the TNF-alpha production result is listed as “lower levels”.

B7: ALK48B: anti-ALK monoclonal antibody, IgG2a; VH SEQ ID NO: 3, VL SEQ ID NO: 4 (antibody, V domains shown)
VH: B5 VH
VL: B5 VL
modifications: Antibody variable domain sequence
Take B7: the “detection of ALK expression” value in the test on ALK [5] is on record as “able to detected ALK expression”. In the test on ALK [1], the “agonist activity on ALK” value was “agonist” and the “phosphorylation of the receptor upon binding” value is “induce phosphorylation”. Moreover, in the test with ALK [1] (listed as mAb 48), the “agonist activity on ALK” value is on record as “activating”. Further, in test [2], the “form of ALK bound (220 kD / 140 kDa cleaved)” value is given as “both” and the “location of epitope on ALK” value is “membrane proximal binding”. In addition, in test [2] (listed as clone 48), the “location of epitope on ALK” value is “closer to the cell surface membrane”.

B8: ALK53 monoclonal antibody (antibody, V domains shown)
VH: DVQLQESGPVLVKTGASVKMSCTASGYTFTDHFMDWVKQSHGKSLEWIGSLNPYSGGTSYNQKFKGKATLTVDKSSSTAYMELNSLTSVDSAVYYCARHNWGAYFDYWGQGTTLTVSS
VL: DIVMTQAAPSVPVTPGESVSISCRSSKSLLHSNGNTYLYWFLQRPGQSPQRLIYYMSNLASGVPDRFSGRGSGTDFTLRISRVEAEDVGVYYCMQGLEDPYTFGGGTKLEIK
notes: Murine hybridoma antibody; also called ALK53A; ALK MAb 53
Consider B8, for which, in test [4], the binding result was “binds”.

B9: ALK53A: anti-ALK monoclonal antibody; VH SEQ ID NO: 5, VL SEQ ID NO: 6 (antibody, V domains shown)
VH: B8 VH
VL: B8 VL
modifications: Antibody variable domain sequence
Turning to B9, the “detection of ALK expression” value in the test on ALK [5] is “able to detected ALK expression”.
